Experiment [1] has as its target WHRN with PDZ2 deleted (mouse) (UniProt Q80VW5). The experiment can be described thus: co-IP; cotransfected HEK293 cells, starved 12 h, lysed in 50 mM Tris-HCl pH 7.4, 150 mM NaCl, 1% Triton, 1% NP-40, 2 mM EDTA; anti-Flag M2 or anti-Myc antibody-conjugated agarose, 4 °C overnight; blots against the tags.
The target in experiment [2] is T1, WHRN-PDZ2 domain, purified (mouse).
T1 sequence (Q80VW5 whole entry, looked up): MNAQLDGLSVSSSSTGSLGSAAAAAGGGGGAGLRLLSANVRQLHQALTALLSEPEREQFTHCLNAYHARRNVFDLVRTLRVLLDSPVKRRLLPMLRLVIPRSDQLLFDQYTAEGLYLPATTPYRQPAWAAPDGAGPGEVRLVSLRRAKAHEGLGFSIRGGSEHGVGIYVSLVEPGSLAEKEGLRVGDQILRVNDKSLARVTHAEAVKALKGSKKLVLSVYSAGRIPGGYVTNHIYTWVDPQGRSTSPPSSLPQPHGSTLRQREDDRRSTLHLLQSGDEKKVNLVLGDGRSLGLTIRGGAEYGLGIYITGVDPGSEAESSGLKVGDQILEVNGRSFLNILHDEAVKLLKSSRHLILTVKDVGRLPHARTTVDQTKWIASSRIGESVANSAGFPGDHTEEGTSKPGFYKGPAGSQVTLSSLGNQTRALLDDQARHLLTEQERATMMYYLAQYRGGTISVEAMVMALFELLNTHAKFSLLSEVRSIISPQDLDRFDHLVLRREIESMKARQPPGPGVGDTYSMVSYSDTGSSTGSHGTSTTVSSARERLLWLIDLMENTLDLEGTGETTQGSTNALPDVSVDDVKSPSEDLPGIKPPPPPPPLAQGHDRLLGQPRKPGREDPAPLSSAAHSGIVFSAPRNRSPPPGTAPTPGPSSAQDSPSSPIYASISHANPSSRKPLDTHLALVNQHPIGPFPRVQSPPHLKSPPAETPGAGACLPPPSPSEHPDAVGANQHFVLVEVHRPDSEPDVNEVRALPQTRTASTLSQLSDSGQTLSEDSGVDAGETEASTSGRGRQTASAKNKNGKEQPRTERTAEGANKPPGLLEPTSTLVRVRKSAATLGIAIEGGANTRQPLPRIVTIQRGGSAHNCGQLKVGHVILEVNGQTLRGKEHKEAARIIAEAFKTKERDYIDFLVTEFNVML
The experiment can be described thus: SPR; BiaCore T200; WHRN-PDZ1 or WHRN-PDZ2 immobilised on a CM5 chip, peptide as analyte in serial dilutions, 120 s association and 120 s dissociation; 10 mM HEPES, 150 mM NaCl, 0.05% Surfactant P20, 0.01% DDM, 0.002% CHS, pH 7.4.

Experiment [3] addresses T2, WHRN-PDZ1 domain, purified (mouse, UniProt Q80VW5 137-225).
T2 construct: first PDZ domain of whirlin (WHRN), mouse; 13C,15N- or 15N-labelled for NMR; Residues up to A222 were assigned; source: purified protein
T2 sequence: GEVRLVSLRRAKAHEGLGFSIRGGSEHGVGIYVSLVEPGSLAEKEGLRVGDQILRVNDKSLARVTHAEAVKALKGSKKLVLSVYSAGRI
The experiment in a line: ITC; ITC200; purified PDZ protein 50 uM, peptide 1 mM; 20 mM Tris, 200 mM NaCl, 2 mM EDTA, pH 7.4. As to conditions: both partners purified.

In experiment [4] the target is T2, WHRN-PDZ1 domain, purified. The experiment can be described thus: SPR; BiaCore T200; WHRN-PDZ1 or WHRN-PDZ2 immobilised on a CM5 chip, peptide as analyte in serial dilutions, 120 s association and 120 s dissociation; 10 mM HEPES, 150 mM NaCl, 0.05% Surfactant P20, 0.01% DDM, 0.002% CHS, pH 7.4. Conditions: both partners purified.

With “ADGRV1 of the PDZ-truncation co-IP (Figure 6b,c) (from UniProt Q8VHN7 4333-6298) (receptor)”, in experiment [1], the decrease of co-immunoprecipitated ADGRV1 against WT WHRN was 85%.
In the case of RRIPIADTHL [ADGRV1p, 10-residue C-terminal tail peptide of ADGRV1 harboring the PDZ-binding motif], the Kd in experiment [2] amounted to 61.2 µM.

B1: USH2Ap, 10-residue C-terminal tail peptide of USH2A harboring the PDZ-binding motif (peptide, UniProt Q2QI47 5184-5193, looked up)
peptide: EHTAFTDTHL
notes: also called USH2A C-terminal peptide; source: synthetic peptide
On to B1, for which the dissociation constant Kd came out at 28.4 ± 4.2 µM in experiment [3] and 23 ± 2.01 µM in experiment [4].

Values taken from paper PMC10238197, “Deafness‐Associated ADGRV1 Mutation Impairs USH2A Stability through Improper Phosphorylation of WHRN and WDSUB1 Recruitment” (Advanced Science, 2023).
